Test results from patent US20050084491A1.

Target: surface integrins on A375.S2 cells (human melanoma cells)
Assay: flow cytometry on A375.S2 cells, CNTO95 10 ug/ml, no peptide (cells only: 3.36)

Mean Channel Fluorescence: 89.7
Substance: CNTO95 (antibody)
